Measurements taken from PMC7276988, “Cryo-EM Structure of the Fork Protection Complex Bound to CMG at a Replication Fork” (Molecular Cell, 2020).

T1: Tof1 (S. cerevisiae, UniProt P53840 1-1238, phosphorylated (sites not given))
T1 construct: Tof1, S. cerevisiae; residues 13-781 are resolved in the map; The Tof1 chain of m2; source: S. cerevisiae, overexpressed with Csm3, purified as Csm3/Tof1; in XL-MS part of the co-expressed, co-purified complex (yJY74)
T1 sequence: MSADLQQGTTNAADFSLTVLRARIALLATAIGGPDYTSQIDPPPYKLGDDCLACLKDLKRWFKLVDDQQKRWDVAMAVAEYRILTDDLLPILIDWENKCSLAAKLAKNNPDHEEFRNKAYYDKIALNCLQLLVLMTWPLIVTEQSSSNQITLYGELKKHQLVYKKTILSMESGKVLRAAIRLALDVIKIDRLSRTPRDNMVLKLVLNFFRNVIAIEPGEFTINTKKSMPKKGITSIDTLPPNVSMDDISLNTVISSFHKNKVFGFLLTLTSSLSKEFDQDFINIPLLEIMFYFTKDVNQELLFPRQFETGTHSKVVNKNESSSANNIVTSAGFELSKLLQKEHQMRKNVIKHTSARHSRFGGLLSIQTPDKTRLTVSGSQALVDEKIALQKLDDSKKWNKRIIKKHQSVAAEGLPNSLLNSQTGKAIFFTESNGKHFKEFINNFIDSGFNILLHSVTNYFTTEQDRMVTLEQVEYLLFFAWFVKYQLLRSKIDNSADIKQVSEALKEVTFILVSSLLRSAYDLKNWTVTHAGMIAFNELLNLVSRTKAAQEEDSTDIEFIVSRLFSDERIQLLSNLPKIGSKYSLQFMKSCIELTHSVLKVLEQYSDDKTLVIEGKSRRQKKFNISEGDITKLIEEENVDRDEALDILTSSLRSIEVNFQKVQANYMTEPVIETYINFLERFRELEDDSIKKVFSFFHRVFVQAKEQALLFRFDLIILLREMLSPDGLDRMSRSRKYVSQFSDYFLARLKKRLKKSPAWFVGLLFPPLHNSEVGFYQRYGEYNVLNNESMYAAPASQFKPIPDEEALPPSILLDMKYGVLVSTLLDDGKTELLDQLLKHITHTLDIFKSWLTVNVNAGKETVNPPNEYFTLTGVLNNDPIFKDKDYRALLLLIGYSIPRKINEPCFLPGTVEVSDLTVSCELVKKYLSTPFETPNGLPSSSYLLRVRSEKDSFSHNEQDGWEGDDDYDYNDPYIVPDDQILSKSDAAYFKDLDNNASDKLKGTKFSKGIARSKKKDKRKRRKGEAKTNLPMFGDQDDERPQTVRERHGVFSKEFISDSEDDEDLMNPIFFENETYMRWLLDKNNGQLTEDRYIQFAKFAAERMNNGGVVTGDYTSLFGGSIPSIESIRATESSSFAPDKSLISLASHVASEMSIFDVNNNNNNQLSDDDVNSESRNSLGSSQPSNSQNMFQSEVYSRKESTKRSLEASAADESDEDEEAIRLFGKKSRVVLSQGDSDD

B1: Mcm7 (natural protein, S. cerevisiae)
chain: MSAALPSIQLPVDYNNLFNEITDFLVTFKQDTLSSDATRNENEDENLDAENIEQHLLEKGPKYMAMLQKVANRELNSVIIDLDDILQYQNEKFLQGTQADDLVSAIQQNANHFTELFCRAIDNNMPLPTKEIDYKDDVLDVILNQRRLRNERMLSDRTNEIRSENLMDTTMDPPSSMNDALREVVEDETELFPPNLTRRYFLYFKPLSQNCARRYRKKAISSKPLSVRQIKGDFLGQLITVRGIITRVSDVKPAVEVIAYTCDQCGYEVFQEVNSRTFTPLSECTSEECSQNQTKGQLFMSTRASKFSAFQECKIQELSQQVPVGHIPRSLNIHVNGTLVRSLSPGDIVDVTGIFLPAPYTGFKALKAGLLTETYLEAQFVRQHKKKFASFSLTSDVEERVMELITSGDVYNRLAKSIAPEIYGNLDVKKALLLLLVGGVDKRVGDGMKIRGDINVCLMGDPGVAKSQLLKAICKISPRGVYTTGKGSSGVGLTAAVMKDPVTDEMILEGGALVLADNGICCIDEFDKMDESDRTAIHEVMEQQTISISKAGINTTLNARTSILAAANPLYGRYNPRLSPLDNINLPAALLSRFDILFLMLDIPSRDDDEKLAEHVTYVHMHNKQPDLDFTPVEPSKMREYIAYAKTKRPVMSEAVNDYVVQAYIRLRQDSKREMDSKFSFGQATPRTLLGIIRLSQALAKLRLADMVDIDDVEEALRLVRVSKESLYQETNKSKEDESPTTKIFTIIKKMLQETGKNTLSYENIVKTVRLRGFTMLQLSNCIQEYSYLNVWHLINEGNTLKFVDDGTMDTDQEDSLVSTPKLAPQTTASANVSAQDSDIDLQDA
notes: Mcm7, S. cerevisiae, subunit of CMG; source: S. cerevisiae, overexpressed, purified as part of CMG
B2: Ctf4 (natural protein, S. cerevisiae)
chain: MVSVIDKLVFDFGGKTLVSLAPDNNTLCVANKNGLTKILKTNNPEEEPETLDSSKLVSSIKCYSNSHFLMTTMQGDALRYNIDSSQEELLARFALPLRDCCVIHSGKMAVFGGDDLELILLELDDETHKKHAIKIDEQVSQISYNSQMNILAVSMINGKVQIFSLTSTIPNKVHELNDYIVANSYDDTHRDKILSNMMDDIDKDNDNDLSETADPDENNVADPEFCAANRICTRVAWHPKGLHFALPCADDTVKIFSIKGYSLQKTLSTNLSSTKAHFIDLQFDPLRGTYIAAVDLNNKLTVWNWETSEIHYTREFKRKITNIAWKIQADSKTLDLVLGTWSGSIAIVQNLAESVVSNIPDQSVAESSTKHGLFVDSESDLENLEGNDDINKSDKLFSDITQEANAEDVFTQTHDGPSGLSEKRKYNFEDEEDFIDDDDGAGYISGKKPHNEHSYSRVHKTHSFPISLANTGKFRYMPFSPAGTPFGFTDRRYLTMNEVGYVSTVKNSEQYSITVSFFDVGRFREYHFEDLFGYDLCFLNEKGTLFGQSKTGQIQYRPHDSIHSNWTKIIPLQAGERITSVAATPVRVIVGTSLGYFRSFNQFGVPFAVEKTSPIVALTAQNYRVFSVHYSQFHGLSYSLSELGTSSKRYYKRECPLPMSLPNINSDMKKDANLDYYNFNPMGIKSLFFSSYGDPCIFGSDNTLLLLSKWRSPEESKWLPILDSNMEIWKMSGGKETTDIHVWPLALAYDTLNCILVKGKHIWPEFPLPLPSEMEIRMPVFVKSKLLEENKAILNKKNEIGADTEAEEGEEDKEIQIPVSMAAEEEYLRSKVLSELLTDTLENDGEMYGNENEVLAALNGAYDKALLRLFASACSDQNVEKALSLAHELKQDRALTAAVKISERAELPSLVKKINNIREARYEQQLK
notes: Ctf4, S. cerevisiae; only the C-terminal part is resolved in the map; Homotrimer; also called Ctf4 trimer; Ctf4_(3); source: purified as previously described (Yeeles et al., 2015); also co-expressed with CMG, Csm3/Tof1 and Mrc1 in S. cerevisiae yJY74 and co-purified
B3: Csm3 (natural protein, S. cerevisiae)
chain: MDQDFDSLLLGFNDSDSVQKDPTVPNGLDGSVVDPTIADPTAITARKRRPQVKLTAEKLLSDKGLPYVLKNAHKRIRISSKKNSYDNLSNIIQFYQLWAHELFPKAKFKDFMKICQTVGKTDPVLREYRVSLFRDEMGMSFDVGTRETGQDLERQSPMVEEHVTSAEERPIVADSFAQDKRNVNNVDYDNDEDDDIYHLSYRNRRGRVLDERGNNETVLNNVVPPKEDLDALLKTFRVQGPVGLEENEKKLLLGWLDAHRKMEKGSMTEEDVQLIQSLEEWEMNDIEGQHTHYDLLPGGDEFGVDQDELDAMKEMGF
notes: Csm3, S. cerevisiae; residues 46-139 are resolved in the map; The Csm3 chain of m2; source: S. cerevisiae, overexpressed with Tof1, purified as Csm3/Tof1; in XL-MS part of the co-expressed, co-purified complex (yJY74)

Key:
Experiment in all cases: cryo-EM structure; reconstituted from purified CMG, fork DNA, Csm3/Tof1, Ctf4, Mrc1 with AMP-PNP; glycerol gradient fixation (glutaraldehyde and BS3)
Tof1 = biological target: T1, Tof1; details: both partners purified
[1] = biological target: the molecule itself
Mcm7 = biological target: B1; details: both partners purified

Binder: B1
binding result (Tof1): binds

Binder: B2
stoichiometry N [1]: 3

Binder: B3
binding result (Mcm7): binds
